According to patent US20150057236A1:

Tests used:
Assay in all cases: cell-based or functional assay
human Sirt1 (human) = human Sirt1 (human) (UniProt Q96EB6)
human Sirt2 (human) = human Sirt2 (human) (UniProt Q8IXJ6)
human Sirt5 (human) = human Sirt5 (human) (UniProt Q9NXA8)
human Sirt3 (human) = human Sirt3 (human) (UniProt Q9NTG7)
Chain of human Sirt3 (human) (Q9NTG7 102-399 limits assumed): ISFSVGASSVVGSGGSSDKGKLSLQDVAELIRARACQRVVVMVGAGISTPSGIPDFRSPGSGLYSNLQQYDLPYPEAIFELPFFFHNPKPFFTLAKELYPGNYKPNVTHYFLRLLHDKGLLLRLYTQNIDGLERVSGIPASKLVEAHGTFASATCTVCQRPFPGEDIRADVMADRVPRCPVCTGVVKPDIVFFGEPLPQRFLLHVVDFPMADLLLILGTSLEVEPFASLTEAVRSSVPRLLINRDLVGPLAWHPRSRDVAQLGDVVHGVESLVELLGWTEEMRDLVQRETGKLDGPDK

Chain of human Sirt5 (human) (Q9NXA8 whole entry): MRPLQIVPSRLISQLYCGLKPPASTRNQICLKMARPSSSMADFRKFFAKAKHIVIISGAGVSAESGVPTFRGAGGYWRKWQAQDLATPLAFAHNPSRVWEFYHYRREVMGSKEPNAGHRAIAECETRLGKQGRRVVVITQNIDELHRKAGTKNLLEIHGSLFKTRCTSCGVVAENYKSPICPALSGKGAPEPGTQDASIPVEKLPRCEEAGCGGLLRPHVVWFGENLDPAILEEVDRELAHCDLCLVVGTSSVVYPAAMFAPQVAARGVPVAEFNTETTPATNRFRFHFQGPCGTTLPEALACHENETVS
Chain of human Sirt1 (human) (Q96EB6 whole entry): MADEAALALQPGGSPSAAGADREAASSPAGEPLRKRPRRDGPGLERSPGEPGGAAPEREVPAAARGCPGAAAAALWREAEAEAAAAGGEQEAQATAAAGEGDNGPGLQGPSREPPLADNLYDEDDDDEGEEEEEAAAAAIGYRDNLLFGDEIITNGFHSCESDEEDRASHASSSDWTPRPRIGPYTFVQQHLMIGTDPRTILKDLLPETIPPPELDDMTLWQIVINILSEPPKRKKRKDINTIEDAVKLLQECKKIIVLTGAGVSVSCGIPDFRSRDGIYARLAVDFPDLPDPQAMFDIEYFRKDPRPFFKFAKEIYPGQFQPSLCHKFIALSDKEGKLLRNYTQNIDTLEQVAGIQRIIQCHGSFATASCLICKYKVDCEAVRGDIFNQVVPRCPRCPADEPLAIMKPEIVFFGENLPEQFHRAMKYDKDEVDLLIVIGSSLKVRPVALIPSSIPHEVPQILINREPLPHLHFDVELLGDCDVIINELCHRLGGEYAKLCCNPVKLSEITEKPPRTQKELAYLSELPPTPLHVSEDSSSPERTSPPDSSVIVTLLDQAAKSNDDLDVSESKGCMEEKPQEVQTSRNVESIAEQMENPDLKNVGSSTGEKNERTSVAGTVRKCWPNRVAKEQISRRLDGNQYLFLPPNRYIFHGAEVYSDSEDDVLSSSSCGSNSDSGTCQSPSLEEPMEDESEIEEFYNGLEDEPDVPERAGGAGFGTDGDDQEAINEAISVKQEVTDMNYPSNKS
Chain of human Sirt2 (human) (Q8IXJ6 whole entry): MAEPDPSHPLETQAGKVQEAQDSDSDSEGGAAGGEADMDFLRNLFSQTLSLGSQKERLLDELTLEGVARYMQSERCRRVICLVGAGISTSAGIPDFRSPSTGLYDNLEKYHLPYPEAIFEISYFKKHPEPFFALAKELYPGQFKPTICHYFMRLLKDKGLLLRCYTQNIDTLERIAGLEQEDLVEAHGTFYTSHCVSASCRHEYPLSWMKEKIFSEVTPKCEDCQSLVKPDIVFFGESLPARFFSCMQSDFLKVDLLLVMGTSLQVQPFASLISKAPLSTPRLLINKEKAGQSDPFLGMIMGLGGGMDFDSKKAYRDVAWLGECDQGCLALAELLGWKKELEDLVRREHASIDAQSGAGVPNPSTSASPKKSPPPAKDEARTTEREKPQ

## H3K9 thioacetyl peptide (H3K9 TAc)
Human Sirt1 (human)
  IC50 (µM), inhibition of sirtuin deacylase activity: 1 µM
Human Sirt2 (human)
  IC50 (µM), inhibition of sirtuin deacylase activity: 2 µM
Human Sirt5 (human)
  IC50 (µM), inhibition of sirtuin deacylase activity: > 100 µM
Human Sirt3 (human)
  IC50 (µM), inhibition of sirtuin deacylase activity: 2 µM
